Experimental data as given in patent US20220177579A1 (published 2022).

T1: human CD19 on CD19(+) NALM6 acute lymphoid leukemia cells (UniProt P15391 20-556)
T1 chain: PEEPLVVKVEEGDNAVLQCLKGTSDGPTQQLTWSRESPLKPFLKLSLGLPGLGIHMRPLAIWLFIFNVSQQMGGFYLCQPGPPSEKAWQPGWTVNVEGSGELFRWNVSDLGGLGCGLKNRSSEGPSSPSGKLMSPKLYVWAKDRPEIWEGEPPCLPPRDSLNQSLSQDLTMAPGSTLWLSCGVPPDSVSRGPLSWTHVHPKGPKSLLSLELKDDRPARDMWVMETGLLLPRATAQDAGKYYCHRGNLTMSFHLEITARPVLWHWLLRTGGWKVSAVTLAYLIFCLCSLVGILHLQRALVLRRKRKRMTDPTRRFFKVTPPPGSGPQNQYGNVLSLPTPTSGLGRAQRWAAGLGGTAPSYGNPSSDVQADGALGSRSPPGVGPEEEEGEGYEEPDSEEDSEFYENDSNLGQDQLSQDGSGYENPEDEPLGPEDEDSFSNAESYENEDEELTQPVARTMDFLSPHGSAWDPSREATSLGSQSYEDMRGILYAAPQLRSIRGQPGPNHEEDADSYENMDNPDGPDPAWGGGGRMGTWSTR


Biological target: T1, human CD19 on CD19(+) NALM6 acute …
Experiment: FACS

Binder | EC50 [µg/mL]
L1+H4 (antibody, V domains shown) VH: QVQLQESGPGLVKPSETLSLTCTVSGVSLPDYGVSWIRQPPGKGLEWIGVIWGSETTNYNPSLKSRVTISVDNSKNQFSLKLSSLTAADTAVYYCAKHYYYGGSYAMDYWGQGTSVTVSS VL: DIQMTQSPSSLSASVGDRVTITCRASQDISKYLNWYQQKPGKAVKLLIYHTSRLHTGVPSRFSGSGSGTDYTLTISSLQPEDIATYFCQQGNTLPYTFGGGTKLEIT | 0.25
L1+H3 (antibody, V domains shown) VH: QVQLQESGPGLVKPSETLSLTCTVSGVSLPDYGVSWIRQPPGKGLEWIGVIWGSETTNYNPSLKSRLTISVDTSKNQFSLKMSSVTAADTAVYYCAKHYYYGGSYAMDYWGQGTSVTVSS VL: DIQMTQSPSSLSASVGDRVTITCRASQDISKYLNWYQQKPGKAVKLLIYHTSRLHTGVPSRFSGSGSGTDYTLTISSLQPEDIATYFCQQGNTLPYTFGGGTKLEIT | 0.37
L2+H6b (antibody, V domains shown) VH: QVQLQESGPGLVKPSETLSLTCTVSGVSLPDYGVSWIRQPPGKGLEWLGVIWGSETTYYNPSLKSRVTISVDNSKNQFSLKLSSVTAADTAVYYCAKHYYYGGSYAMDYWGQGTSVTVSS VL: DIQMTQSPSSLSASVGDRVTITCQASQDISKYLNWYQQKPGKAVKLLIYHTSRLHSGVPSRFSGSGSGTDYTLTISSLQPEDIATYFCQQGNTLPYTFGGGTKLEIT | 0.08
L3+H4 (antibody, V domains shown) VH: QVQLQESGPGLVKPSETLSLTCTVSGVSLPDYGVSWIRQPPGKGLEWIGVIWGSETTNYNPSLKSRVTISVDNSKNQFSLKLSSLTAADTAVYYCAKHYYYGGSYAMDYWGQGTSVTVSS VL: DIQMTQSTSSLSASVGDRVTITCRASQDISKYLNWYQQKPGKAVKLLIYHTSRLHSGVPSRFSGSGSGTDYTFTISSLQPEDIATYYCQQGNTLPYTFGGGTKLEIT | 0.42
L2+H2b (antibody, V domains shown) VH: QVQLQESGPGLVKPSETLSLTCTVSGVSLPDYGVSWIRQPPGKGLEWLGVIWGSETTNYNPSLKSRVTISKDTSKNQFSLKLSSLTAADTAVYYCAKHYYYGGSYAMDYWGQGTSVTVSS VL: DIQMTQSPSSLSASVGDRVTITCQASQDISKYLNWYQQKPGKAVKLLIYHTSRLHSGVPSRFSGSGSGTDYTLTISSLQPEDIATYFCQQGNTLPYTFGGGTKLEIT | 0.17
L1+H5b (antibody, V domains shown) VH: QVQLQESGPGLVKPSETLSLTCTVSGVSLPDYGVSWIRQPPGKGLEWIGVIWGSETTNYNPSLKSRVTISKDTSKSQVSLKLSSVTAADTAVYYCAKHYYYGGSYAMDYWGQGTSVTVSS VL: DIQMTQSPSSLSASVGDRVTITCRASQDISKYLNWYQQKPGKAVKLLIYHTSRLHTGVPSRFSGSGSGTDYTLTISSLQPEDIATYFCQQGNTLPYTFGGGTKLEIT | 0.18
L1+H2b (antibody, V domains shown) VH: QVQLQESGPGLVKPSETLSLTCTVSGVSLPDYGVSWIRQPPGKGLEWLGVIWGSETTNYNPSLKSRVTISKDTSKNQFSLKLSSLTAADTAVYYCAKHYYYGGSYAMDYWGQGTSVTVSS VL: DIQMTQSPSSLSASVGDRVTITCRASQDISKYLNWYQQKPGKAVKLLIYHTSRLHTGVPSRFSGSGSGTDYTLTISSLQPEDIATYFCQQGNTLPYTFGGGTKLEIT | 0.23
L2+H7b (antibody, V domains shown) VH: QVQLQESGPGLVKPSETLSLTCTVSGVSLPDYGVSWIRQPPGKGLEWIGVIWGSETTYYNPSLKSRVTISKDTSKSQFSLKMSSVTAADTAVYYCAKHYYYGGSYAMDYWGQGTSVTVSS VL: DIQMTQSPSSLSASVGDRVTITCQASQDISKYLNWYQQKPGKAVKLLIYHTSRLHSGVPSRFSGSGSGTDYTLTISSLQPEDIATYFCQQGNTLPYTFGGGTKLEIT | 0.06
L1+H6b (antibody, V domains shown) VH: QVQLQESGPGLVKPSETLSLTCTVSGVSLPDYGVSWIRQPPGKGLEWLGVIWGSETTYYNPSLKSRVTISVDNSKNQFSLKLSSVTAADTAVYYCAKHYYYGGSYAMDYWGQGTSVTVSS VL: DIQMTQSPSSLSASVGDRVTITCRASQDISKYLNWYQQKPGKAVKLLIYHTSRLHTGVPSRFSGSGSGTDYTLTISSLQPEDIATYFCQQGNTLPYTFGGGTKLEIT | 0.08

The remaining lines, values ahead:

EC50 [µg/mL] | Binder
0.1 | CD19-BsAb BC250 (hFMC63 VL-2/VH-1b x CD3 IgG-scFv bispecific antibody) (bispecific antibody) heavy: not shown light: DIQMTQSPSSLSASVGDRVTITCQASQDISKYLNWYQQKPGKAVKLLIYHTSRLHSGVPSRFSGSGSGTDYTLTISSLQPEDIATYFCQQGNTLPYTFGGGTKLEITRTVAAPSVFIFPPSDEQLKSGTASVVCLLNNFYPREAKVQWKVDNALQSGNSQESVTEQDSKDSTYSLSSTLTLSKADYEKHKVYACEVTHQGLSSPVTKSFNRGECTSGGGGSGGGGSGGGGSQVQLVQSGGGVVQPGRSLRLSCKASGYTFTRYTMHWVRQAPGKCLEWIGYINPSRGYTNYNQKFKDRFTISRDNSKNTAFLQMDSLRPEDTGVYFCARYYDDHYSLDYWGQGTPVTVSSGGGGSGGGGSGGGGSGGGGSGGGGSGGGGSDIQMTQSPSSLSASVGDRVTITCSASSSVSYMNWYQQTPGKAPKRWIYDTSKLASGVPSRFSGSGSGTDYTFTISSLQPEDIATYYCQQWSSNPFTFGCGTKLQITR
0.1 | L2+H8b (antibody, V domains shown) VH: QVQLQESGPGLVKPSETLSVTCTVSGVSLPDYGVSWIRQPPGKGLEWIGVIWGSETTYYNPSLKSRLTISKDTSKNQFSLKLSSVTAADTAVYYCAKHYYYGGSYAMDYWGQGTSVTVSS VL: DIQMTQSPSSLSASVGDRVTITCQASQDISKYLNWYQQKPGKAVKLLIYHTSRLHSGVPSRFSGSGSGTDYTLTISSLQPEDIATYFCQQGNTLPYTFGGGTKLEIT
0.27 | L2+H4 (antibody, V domains shown) VH: QVQLQESGPGLVKPSETLSLTCTVSGVSLPDYGVSWIRQPPGKGLEWIGVIWGSETTNYNPSLKSRVTISVDNSKNQFSLKLSSLTAADTAVYYCAKHYYYGGSYAMDYWGQGTSVTVSS VL: DIQMTQSPSSLSASVGDRVTITCQASQDISKYLNWYQQKPGKAVKLLIYHTSRLHSGVPSRFSGSGSGTDYTLTISSLQPEDIATYFCQQGNTLPYTFGGGTKLEIT
0.13 | L1+H8b (antibody, V domains shown) VH: QVQLQESGPGLVKPSETLSVTCTVSGVSLPDYGVSWIRQPPGKGLEWIGVIWGSETTYYNPSLKSRLTISKDTSKNQFSLKLSSVTAADTAVYYCAKHYYYGGSYAMDYWGQGTSVTVSS VL: DIQMTQSPSSLSASVGDRVTITCRASQDISKYLNWYQQKPGKAVKLLIYHTSRLHTGVPSRFSGSGSGTDYTLTISSLQPEDIATYFCQQGNTLPYTFGGGTKLEIT
0.08 | L3+H7b (antibody, V domains shown) VH: QVQLQESGPGLVKPSETLSLTCTVSGVSLPDYGVSWIRQPPGKGLEWIGVIWGSETTYYNPSLKSRVTISKDTSKSQFSLKMSSVTAADTAVYYCAKHYYYGGSYAMDYWGQGTSVTVSS VL: DIQMTQSTSSLSASVGDRVTITCRASQDISKYLNWYQQKPGKAVKLLIYHTSRLHSGVPSRFSGSGSGTDYTFTISSLQPEDIATYYCQQGNTLPYTFGGGTKLEIT
0.07 | L1+H7b (antibody, V domains shown) VH: QVQLQESGPGLVKPSETLSLTCTVSGVSLPDYGVSWIRQPPGKGLEWIGVIWGSETTYYNPSLKSRVTISKDTSKSQFSLKMSSVTAADTAVYYCAKHYYYGGSYAMDYWGQGTSVTVSS VL: DIQMTQSPSSLSASVGDRVTITCRASQDISKYLNWYQQKPGKAVKLLIYHTSRLHTGVPSRFSGSGSGTDYTLTISSLQPEDIATYFCQQGNTLPYTFGGGTKLEIT
0.28 | L3+H2b (antibody, V domains shown) VH: QVQLQESGPGLVKPSETLSLTCTVSGVSLPDYGVSWIRQPPGKGLEWLGVIWGSETTNYNPSLKSRVTISKDTSKNQFSLKLSSLTAADTAVYYCAKHYYYGGSYAMDYWGQGTSVTVSS VL: DIQMTQSTSSLSASVGDRVTITCRASQDISKYLNWYQQKPGKAVKLLIYHTSRLHSGVPSRFSGSGSGTDYTFTISSLQPEDIATYYCQQGNTLPYTFGGGTKLEIT
0.13 | L1+H1b (antibody, V domains shown) VH: QVQLQESGPGLVKPSETLSVTCTVSGVSLPDYGVSWIRQPPGKGLEWIGVIWGSETTYYNPSLKSRVTISVDTSKNQVSLKLSSVTAADTAVYYCAKHYYYGGSYAMDYWGQGTSVTVSS VL: DIQMTQSPSSLSASVGDRVTITCRASQDISKYLNWYQQKPGKAVKLLIYHTSRLHTGVPSRFSGSGSGTDYTLTISSLQPEDIATYFCQQGNTLPYTFGGGTKLEIT
0.19 | L2+H5b (antibody, V domains shown) VH: QVQLQESGPGLVKPSETLSLTCTVSGVSLPDYGVSWIRQPPGKGLEWIGVIWGSETTNYNPSLKSRVTISKDTSKSQVSLKLSSVTAADTAVYYCAKHYYYGGSYAMDYWGQGTSVTVSS VL: DIQMTQSPSSLSASVGDRVTITCQASQDISKYLNWYQQKPGKAVKLLIYHTSRLHSGVPSRFSGSGSGTDYTLTISSLQPEDIATYFCQQGNTLPYTFGGGTKLEIT
0.19 | L3+H1b (antibody, V domains shown) VH: QVQLQESGPGLVKPSETLSVTCTVSGVSLPDYGVSWIRQPPGKGLEWIGVIWGSETTYYNPSLKSRVTISVDTSKNQVSLKLSSVTAADTAVYYCAKHYYYGGSYAMDYWGQGTSVTVSS VL: DIQMTQSTSSLSASVGDRVTITCRASQDISKYLNWYQQKPGKAVKLLIYHTSRLHSGVPSRFSGSGSGTDYTFTISSLQPEDIATYYCQQGNTLPYTFGGGTKLEIT
